Reference: patent publication US11311610B2, “Immune-modulating agents and uses therefor” (UNIVERSITY OF TECHNOLOGY SYDNEY, priority 2010, dated 2022)

Experiments:
RAW264.7 cells = assay: Binding of FITC-conjugated LPS to RAW 264.7 cells (flow cytometry); assay type: cell-based, murine; conditions: 0.1-10 μg/mL, 20 min at 4° C.
Procedure: FIG. 9 is a graphical representation showing LPS neutralization by FhHDM-1. The ability of FhHDM-1 (Δ), FhHDM-1 p1 (●) or FhHDM-1 p3 (▪) to bind to LPS was investigated by (A) incubating a range of concentrations of proteins (0.02-2 μg/well) in an LPS-coated (100 ng/well) microtitre plate. Bound peptides were detected by ELISA using rabbit anti-FhHDM-1 as a primary antibody. (B) FhHDM-1 or derived peptides (0.1 μg) were incubated in the presence of LPS (0.05-5 μg/well) and bound peptides measured as described above. Binding of peptides to the LPS-immobilized plates was expressed as a percentage of that measured for 2 μg (for panel A) or 0.1 μg (for panel B) of FhHDM-1. Data are the means±SD from three separate experiments. (C) FhHDM-1 and FhHDM-1 p3 but not FhHDM-1 p1 reduced the interaction between LPS and LBP as effectively as LL-37. LPS-coated microtitre plates were incubated with 5 μg/well of LL-37, FhHDM-1 or derived peptides for 1 h prior to the addition of 10% human sera in PBS. Interaction of LBP with LPS was measured by ELISA using an anti-LBP primary antibody and expressed as a percentage of that detected for 10% sera in the absence of added peptides. Data are the mean±SD of three separate experiments. Statistical significance was calculated using the student t-test and represent a comparison to the binding of 10% sera to immobilized LPS. (D) Binding of FITC-conjugated LPS to RAW264.7 cells was inhibited by LL-37, FhHDM-1 and peptides. […] The binding of FITC-LPS was analyzed by flow cytometry. LPS binding was expressed as a percentage of the mean fluorescence obtained for the addition of FITC-LPS to cells in the absence of peptides. […] Two hours later, sera was collected and serum levels of TNF and (F) IL-10 measured by ELISA. (G) Peritoneal macrophages were isolated, cultured unstimulated in media overnight and then levels of TNF and (H) IL-10 in the culture measured by ELISA. […]
The effect of FhHDM-1 and derived peptides on the binding of FITC-LPS to CD14+ cells was determined by flow cytometry of the murine macrophage cell line RAW264.7. […]

[1] = tested on: ATPase activity associated with lysosomal membranes (equivalent to vATPase activity); assay: ATPase activity of enriched lysosomal membranes; assay type: biochemical, murine; conditions: lysosomal membranes from RAW264.7 macrophage lysates
Procedure: FIG. 17 is a graphical representation showing that FhHDM-1 P3 inhibits ATPase activity associated with lysosomal membranes in a concentration-dependent manner. A cellular fraction enriched for lysosomes was prepared by sequential centrifugation of RAW264.7 macrophage lysates. The lysosomal membranes were recovered and assayed (with or without HDM peptides) for ATPase activity using a commercially available kit.
FIG. 18 is a diagrammatic representation showing a sequence alignment of various synthetic HDM peptides. The amphipathic helix is shaded in grey as are the mutated residues in peptides nonHP and 2Pro. NonHP is a variant of FhHDM-1 P3 in which the hydrophobic face of the FhHDM-1 amphipathic helix was removed. 2Pro is a variant of FhHDM-1 P3 in which two prolines substitutions were incorporated to disrupt the alpha-helix. Cons_p3 is a consensus peptide corresponding to various FhHDM-1 homologs. All peptides in the alignment were tested for their ability to inhibit the ATPase activity associated with enriched lysosomal membranes (prepared from RAW macrophages). Those with inhibitory activity are shown in bold text.
A cellular fraction enriched for lysosomes was prepared by sequential centrifugation of RAW264.7 macrophage lysates. The lysosome pellet was extracted with water and the resulting lysosomal membranes were recovered and assayed (with or without HDM peptides) for ATPase activity using a commercially available kit.

[2] = tested on: LPS-induced inflammatory response; assay: Endotoxin (LPS)-induced inflammation in mice, co-injection; assay type: in vivo, BALB/c mice
Procedure: FIG. 9 is a graphical representation showing LPS neutralization by FhHDM-1. The ability of FhHDM-1 (Δ), FhHDM-1 p1 (●) or FhHDM-1 p3 (▪) to bind to LPS was investigated by (A) incubating a range of concentrations of proteins (0.02-2 μg/well) in an LPS-coated (100 ng/well) microtitre plate. Bound peptides were detected by ELISA using rabbit anti-FhHDM-1 as a primary antibody. (B) FhHDM-1 or derived peptides (0.1 μg) were incubated in the presence of LPS (0.05-5 μg/well) and bound peptides measured as described above. Binding of peptides to the LPS-immobilized plates was expressed as a percentage of that measured for 2 μg (for panel A) or 0.1 μg (for panel B) of FhHDM-1. Data are the means±SD from three separate experiments. (C) FhHDM-1 and FhHDM-1 p3 but not FhHDM-1 p1 reduced the interaction between LPS and LBP as effectively as LL-37. LPS-coated microtitre plates were incubated with 5 μg/well of LL-37, FhHDM-1 or derived peptides for 1 h prior to the addition of 10% human sera in PBS. Interaction of LBP with LPS was measured by ELISA using an anti-LBP primary antibody and expressed as a percentage of that detected for 10% sera in the absence of added peptides. Data are the mean±SD of three separate experiments. Statistical significance was calculated using the student t-test and represent a comparison to the binding of 10% sera to immobilized LPS. (D) Binding of FITC-conjugated LPS to RAW264.7 cells was inhibited by LL-37, FhHDM-1 and peptides. RAW264.7 cells (5×10^5 cells/mL) were incubated with 1 μg/mL of FITC-conjugated LPS in the presence of increasing concentrations (0.1-10 μg/mL) of FhHDM-1, FhHDM-1 p1 and FhHDM-1 p3 and LL-37 in RPMI 1640 containing 10% FBS for 20 min at 4° C. The binding of FITC-LPS was analyzed by flow cytometry. LPS binding was expressed as a percentage of the mean fluorescence obtained for the addition of FITC-LPS to cells in the absence of peptides. Data are the mean±SD of two independent experiments. (E) FhHDM-1 and FhHDM-1 p3 both suppress the inflammatory response induced by LPS in mice. BALB/c mice were intra-peritoneally injected with 1 μg of LPS alone or combined with 1 μg of FhHDM-1, FhHDM-1 p3 or LL-37. Two hours later, sera was collected and serum levels of TNF and (F) IL-10 measured by ELISA. (G) Peritoneal macrophages were isolated, cultured unstimulated in media overnight and then levels of TNF and (H) IL-10 in the culture measured by ELISA. Data are the mean±SD of six mice in each group. Statistical significance represents a comparison to the levels of cytokines secreted by mice given LPS only.
Human Defense peptides protect against harmful inflammatory responses by preventing activation of macrophages by classical TLR ligands such as LPS (Scott et al. 2002, J. Immunol. 169, 3883-3891). Here, the inventors employed a murine model to examine whether FhHDM-1 and derived peptides can suppress LPS-induced Th1 inflammation. BALB/c mice were injected intra-peritoneally with 1 μg of LPS alone or LPS combined with 1 μg of FhHDM-1, FhHDM-1 p3 or LL-37. Two hours later, sera was collected and serum levels of the pro-inflammatory mediators TNF and IL-10 were measured by ELISA. […] Because macrophages are the main source of pro-inflammatory mediators in this murine model of inflammation, peritoneal macrophages were isolated from treated mice (LPS±FhHDM-1, peptides or LL-37 as described above), cultured unstimulated in media overnight and then levels of TNF and IL-10 in the culture media were measured by ELISA.
Six week-old female BALB/c mice were purchased from ARC (Perth, Australia) and maintained according to the guidelines of the University of Technology Sydney Animal Care and Ethics committee. For the analysis for endotoxin-induced inflammation, mice were intra-peritoneally injected with 1 μg of E. coli LPS (serotype 111:B4; Sigma) either with or without 1 μg FhHDM-1 or derived peptides. After 2 h mice were sacrificed by cervical dislocation. […]

[3] = BALB/c mice, 1 μg LPS mixed with 1 μg i.p., 2 h
[4] = macrophages from treated mice, cultured unstimulated overnight

| Molecule | binding of FITC-LPS to RAW264.7 macrophages (RAW264.7 cells) | ATPase activity associated with lysosomal membranes [1] | serum levels of IL-10 [2, 3] | serum levels of TNF [2, 3] | LPS-induced secretion of IL-10 from peritoneal macrophages [2, 4] | TNF secreted from peritoneal macrophages [2, 4] |
| --- | --- | --- | --- | --- | --- | --- |
| KARDRAMAYLAKDNLGEKITEVITILLNRL (FhHDM-1 peptide 1 comprising a truncated amphipathic helix contained in FhHDM-1) [FhHDM-1 p1, peptide in which the amphipathic helix is truncated] | reduced binding of FITC-LPS to the cells in a dose-dependent manner albeit to a lesser extent | did not inhibit ATPase activity |  |  |  |  |
| FhHDM-1: 90-residue polypeptide from F. hepatica, Helminth Defense Molecule-1 (SEQ ID NO:24); recombinant form minus N-terminal signal peptide, expressed in E. coli (protein, listed as Fasciola hepatica) MRFIVLLCLAEVLLAAYVEARPSEESREKLRESGRKMVKALRDAVTKAYEKARDRAMAYLAKDNLGEKITEVITILLNRLTDRLEKYAGN | reduced binding of FITC-LPS to the cells in a dose-dependent manner albeit to a lesser extent | did not inhibit ATPase activity | significant reduction | significant reduction | significantly inhibited | significantly reduced |
